Results taken from patent US20260077065A1, “Compositions and Methods for Assessing Kinase Activity” (The Board of Trustees of the Leland Stanford Junior …, priority 2022, published 2026).

How the values were obtained:
ERK [1] = test: bKiMBI bioluminescence in cancer cell lines U87, U87-EGFRvIII, SK-OV-3; assay type: cell-based, human; details: SK-OV-3 cells
Description: Endogenous ERK activity in these cell lines appeared to be only partially activated, as co-expressing caMEK further suppressed basal KiMBI signal. […] This provides additional evidence that KiMBI responds positively to ERK inhibition, and argues against inhibitors directly binding KiMBIs to enhance NanoLuc assembly or catalysis. […] Positive KiMBI responses must actually overcome this tendency of kinase inhibitors to suppress bioluminescence.
In vitro cell-based bioluminescent assay. Cells were seeded into 96-well Lumitrac plate (Greiner Bio-One) at a density of 1.5-2×10^4 cells per well. After 24 h, cells were transiently transfected with KiMBI-expressing plasmids (5-10 ng per well) with or without caMEK-expressing plasmids (50 ng per well, empty pcDNA3.1 as negative control to keep total transfected DNA amount consistent) using lipofectamine 3000 (Invitrogen) following manufacturer's instructions. […] Then, for assaying luminescence, Nano-Glo live cell assay system (Promega) was used following manufacturer's instructions. Time-lapse live luminescence was recorded on Safire-2 microplate reader (Tecan) with 100 ms integration and one read per min for 20 min. Luminescence spectrum was measured on a Varioskan LUX multimode microplate reader (Thermo Scientific) using the spectral scanning protocol with 1 s integration for each wavelength at 400-680 nm (1 nm per data point).

ERK [2] = test: ERK KiMBI cell-based bioluminescent assay, HEK293A cells co-transfected with caMEK; details: FIG. 5d
Description: To develop a luciferase reporter protein whose activity can be activated by ERK inhibition, it was hypothesized that NanoLuc luciferase catalytic activity could be modulated through large ERK-induced conformational changes. Created and tested were fusion proteins of various topologies (FIG. 2a) comprising the NanoLuc NanoBiT fragments, an ERK substrate peptide from Cdc25C^7, and a proline-directed WW phospho-binding domain (WW)^8 from Pin1. In particular, an arrangement was postulated in which binding of phosphorylated substrate (pSub) to WW would force the SmBiT fragment to adopt an unfavorable conformation for LgBiT complementation, would show low luminescence with active ERK and high luminescence with inhibited ERK (FIG. 2b). […]
In vitro cell-based bioluminescent assay. […] Then, for assaying luminescence, Nano-Glo live cell assay system (Promega) was used following manufacturer's instructions. Time-lapse live luminescence was recorded on Safire-2 microplate reader (Tecan) with 100 ms integration and one read per min for 20 min. Luminescence spectrum was measured on a Varioskan LUX multimode microplate reader (Thermo Scientific) using the spectral scanning protocol with 1 s integration for each wavelength at 400-680 nm (1 nm per data point).

Molecule	bKiMBI response (brightness increase) after ERK inhibition (ERK [1]) [fold]	time to full induction of reporter by kinase inhibitor (ERK [2]) [h]
bKiMBI: ERK blue KiMBI, WW F25A; SEQ ID NO:2 (protein) MVSKGEELIKENMRSKLYLEGSVNGHQFKCTHEGEGKPYEGKQTNRIKVVEGGPLPFAFDILATHFMYGSKVFIKYPADLPDYFKQSFPEGFTWERVMVFEDGGVLTATQDTSLQDGELIYNVKVRGVNFPANGPVMQKKTLGWEPSTETMYPADGGLEGRCDKALKLVGGGHLHVNFKTTYKSKKPVKMPGVHYVDRRLERIKEADNETYVEQYEHAVARYSNLGGGFTLEDFVGDWEQTAAYNLDQVLEQGGVSSLLQNLAVSVTPIQRIVRSGENALKIDIHVIIPYEGLSADQMAQIEEVFKVVYPVDDHHFKVILPYGTLVIDGVTPNMLNYFGRPYEGIAVFDGKKITVTGTLWNGNKIIDERLITPDGSMLFRVTINSIMADEEKLPPGWEKRMSRSSGRVYYANHITNASQWERPSGNSSSGGKNGQGEPARVTGYRLFEPDSPRTPVDKAKLSFQFP	~2.5	
tKiMBI: ERK KiMBI with N-terminal tdTomato; SEQ ID NO:4 (protein) MVSKGEEVIKEFMRFKVRMEGSMNGHEFEIEGEGEGRPYEGTQTAKLKVTKGGPLPFAWDILSPQFMYGSKAYVKHPADIPDYKKLSFPEGFKWERVMNFEDGGLVTVTQDSSLQDGTLIYKVKMRGTNFPPDGPVMQKKTMGWEASTERLYPRDGVLKGEIHQALKLKDGGHYLVEFKTIYMAKKPVQLPGYYYVDTKLDITSHNEDYTIVEQYERSEGRHHLFLGHGTGSTGSGSSGTASSEDNNMAVIKEFMRFKVRMEGSMNGHEFEIEGEGEGRPYEGTQTAKLKVTKGGPLPFAWDILSPQFMYGSKAYVKHPADIPDYKKLSFPEGFKWERVMNFEDGGLVTVTQDSSLQDGTLIYKVKMRGTNFPPDGPVMQKKTMGWEASTERLYPRDGVLKGEIHQALKLKDGGHYLVEFKTIYMAKKPVQLPGYYYVDTKLDITSHNEDYTIVEQYERSEGRHHLFRLEDFVGDWEQTAAYNLDQVLEQGGVSSLLQNLAVSVTPIQRIVRSGENALKIDIHVIIPYEGLSADQMAQIEEVFKVVYPVDDHHFKVILPYGTLVIDGVTPNMLNYFGRPYEGIAVFDGKKITVTGTLWNGNKIIDERLITPDGSMLFRVTINSIMADEEKLPPGWEKRMSRSSGRVYYFNHITNASQWERPSGNSSSGGKNGQGEPARVTGYRLFEPDSPRTPVDKAKLSFQFP		~1
